Patent publication US7387779B2, “Anti-angiogenic proteins and fragments and methods of use thereof” (Beth Israel Deaconess Medical Center, priority 1998, dated 2008)

Legend:
[1] = system: 786-O tumors; assay: 786-O renal cell carcinoma xenograft; format: in vivo, athymic nude mice; conditions: for inhibition of tumor growth compared to placebo: 10 mg/kg I.P. daily, 10 days
Method: In the first group of six mice, the tumors were allowed to grow to about 700 mm^3. In a second group of six mice, the tumors were allowed to group to 100 mm^3. Arresten in sterile PBS was injected I.P. daily for 10 days, at a concentration of 20 mg/kg for the mice with tumors of 700 mm^3, and 10 mg/kg for the mice with tumors of 100 mm^3. Control mice received either BSA or the PBS vehicle. […] Tumors in the Arresten-treated mice shrank from 700 to 500 mm^3, while tumors in BSA-treated and control mice grew to about 1200 mm^3 in 10 days. […] The tumors were allowed to grow to either about 100 mm^3 or about 700^3. Each group contained 6 mice. Canstatin in sterile PBS was injected I.P. daily at a concentration of 10 mg/kg for 10 days. The control group received the same volume of PBS. The results are shown in FIGS. 17C (100 mm^3 tumors) and […] (700 mm^3 tumors). In both groups, the Canstatin-treated (.box-solid.) tumors actually shrank relative to the controls (□). Tumstatin's effect on another established primary tumors in mice was also studied. […] Tumstatin was intraperitoneally injected daily (6 mg/kg) for 10 days in sterile PBS. The control group received BSA injections. […] E. Coli-produced Tumstatin at 6 mg/kg inhibited the tumor growth of 786-O human renal cell carcinoma as compared to the BSA control (FIG. 27B). […] Each point represents the mean i SE of 5-6 mice per group. Data points marker with an asterisk were significant, with P<0.05 by one tailed Student's t test. […] The tumors were allowed to grow to a size of about 100-150 mm^3. The mice were then divided into groups of 5, and were injected daily intraperitoneally with 20 mg/kg of the E. Coli-expressed truncated Tumstatin lacking the 53 N-terminal amino acids (Kalluri, R. et al., 1996, J. Biol. Chem. 271:9062-68) for 10 days. Control mice received PBS injection. The results are shown in FIG. 28, which is a graph showing increase in tumor volume (y-axis) against day of treatment (x-axis) for control mice (□) and mice treated with the Tumstatin mutant N53 (●). […] Each point represents the mean ±SE of 5-6 mice/group. Data points marked with an asterisk were significant, with P<0.05 by one-tailed Student's t test.

[2] = system: C-PAE cells; assay: Annexin V-FITC apoptosis assay; format: cell-based, bovine; conditions: for IC50, induction of endothelial cell apoptosis: 10% FBS; for Apo (Annexin V-FITC assay): Table 4
Method: Fifty thousand C-PAE cells were added to each well of a 6-well tissue culture plate in DMEM supplemented with 10% FBS for 12 hours. Fresh medium together and either 5 μg/ml Arresten or 40 ng/ml TNFα (positive control) was added at 2, 4 and 6 hour time points. Control wells received an equal of volume of PBS. Detached cells and adherent cells were pooled together and centrifuged at 1500 rpm. Cells were washed with binding buffer (Clontech, Palo Alto, Calif., USA), and phosphatidyl-serine (PS) externalization, an indicator of apoptosis, was measured by labeling with FITC-labeled annexin V (Clontech) according to manufacturer's instructions. Annexin-FITC labeled cells were counted using a FACStar Plus flow cytometer (Becton-Dickinson, Waltham, Mass., USA). For each treatment, 10,000 cells were counted and stored. […] Relative to controls, the percentage of annexin-V-stained (apoptotic) cells increased to about 27% at 2 hours, and near 20% at 4 and 6 hours for the positive control, TNFα. For Arresten-treated cells, the percentage of apoptotic cells was about 18% at 2 hours, and about 23% at 4 and 6 hours.
Annexin V-FITC Labeling. In order to establish apoptosis as the potential mode of action for Canstatin, Annexin V-FITC was used to label externalized phosphatidylserine (PS), to assess apoptotic cells. 0.5×10^6 C-PAE cells, PC-3, 786-O and HEK 293 cells were added to each well of a 6 well tissue culture plate in 10% FBS supplemented DMEM (BioWhittaker, Walkersville, Md., USA) overnight. The next day, fresh medium was added to all wells together with 40 ng/ml TNF-α (positive control) or 15 μg/ml Canstatin. Control cells received an equal volume of PBS. After 24 hours of treatment, medium containing detached cells was collected and attached cells were trypsinized and combined with detached cells and centrifuged at 3,000×g. Cells were then washed and phosphatidyl-serine externalization (an early apoptotic indicator) was measured by labeling with FITC-labeled annexin V (Clontech, Palo Alto, Calif., USA) according to the manufacturer's instructions. Annexin V-FITC-labeled cells were counted using a FAC Star Plus flow cytometer (Becton-Dickenson, Waltham, Mass., USA). For each treatment 15,000 cells were counted and stored in listmode.
C-PAE cells (0.5×10^6 per well) were seeded onto a 6-well plate in 10% FCS supplemented DMEM. The next day, fresh medium containing 10% FCS was added with either 80 ng/ml of TNF-α (positive control) or Tumstatin ranging from 0.02 to 20 μg/ml. Control cells received an equal volume of PBS. After 18 hours of treatment, medium containing floating cells was collected, and attached cells were trypsinized and centrifuged together with floating cells at 3,000×g. The cells were then washed in PBS and resuspended in binding buffer (10 mM HEPES/NaOH, pH 7.4, 140 mM NaCl, 2.5 mM CaCl2). Annexin V-FITC (Clontech, Palo Alto, Calif., USA) was added to a final concentration of 150 ng/ml, and the cells were incubated in the darkness for 10 minutes. The cells were washed again in PBS and resuspended in binding buffer. Annexin V-FITC labeled cells were counted using a FACStar Plus flow cytometer (Becton-Dickinson, Waltham, Mass., USA). For each treatment, 15,000 cells were counted and stored in listmode.
Apoptosis was measured by Annexin V-FITC assay, using the ApoAlert kit (Clontech, Palo Alto, Calif., USA). Propidium iodide was used to stain the nuclei of cells that had died by ways other than apoptosis.
The assay was performed as described above, by treating C-PAE cells with Tumstatin-44-131 for 18 hours. Control cells received PBS.

B1: Tum-1: residues 54 to 244 of Tumstatin, lacking the N-terminal 53 amino acids (SEQ ID NO:22) (protein)
chain: QRAHGQDLGTLGSCLQRFTTMPFLFCNVNDVCNFASRNDYSYWLSTPALMPMNMAPITGRALEPYISRCTVCEGPAIAIAVHSQTTDIPPCPHGWISLWKGFSFIMFTSAGSEGTGQALASPGSCLEEFRASPFLECHGRGTCNYYSNSYSFWLASLNPERMFRKPIPSTVKAGELEKIISRCQVCMKKRH
modifications: Tum-1 (Tumstatin N-53) (amino acids 54-244 of SEQ ID NO10)
**Q.** For B1, which “tumor volume on day 10” value ([1]; start 100-150 mm^3, 6 mg/kg in the result sentence (20 mg/kg in the method), control 345.0±24.0) is on record?
**A.** 110.0±29.0 mm^3

**Q.** And the “IC50, induction of endothelial cell apoptosis” value [2]?
**A.** about 5 μg/ml

**Q.** And the “Apo (Annexin V-FITC assay)” value [2]?
**A.** 5 µg

B2: Canstatin: NC1 domain of the α2 chain of Type IV collagen (SEQ ID NO:6) (protein, listed as Homo sapiens)
chain: VSIGYLLVKHSQTDQEPMCPVGMNKLWSGYSLLYFEGQEKAHNQDLGLAGSCLARFSTMPFLYCNPGDVCYYASRNDKSYWLSTTAPLPMMPVAEDEIKPYISRCSVCEAPAIAIAVHSQDVSIPHCPAGWRSLWIGYSFLMHTAAGDEGGGQSLVSPGSCLEDFRATPFIECNGGRGTCHYYANKYSFWLTTIPEQSFQGSPSADTLKAGLIRTHISRCQVCMKNL
**Q.** With B2 as the molecule, how does the “inhibition of tumor growth compared to placebo” value ([1]; large (700 mm^3) tumors) read?
**A.** 3 fold

**Q.** And the “inhibition of tumor growth compared to placebo” value ([1]; small (100 mm^3) tumors)?
**A.** 4 fold

**Q.** And the induction of apoptosis ([2]; 15 μg/ml Canstatin, 24 hours)?
**A.** specifically induce apoptosis of endothelial cells

**Q.** And the induction of apoptosis ([2]; concentrations above 1 μg/ml)?
**A.** induced apoptosis

B3: Tumstatin: NC1 domain of the α3 chain of type IV collagen, residues 1-244 (SEQ ID NO:10) (protein, listed as Homo sapiens)
chain: GLKGKRGDSGSPATWTTRGFVFTRHSQTTAIPSCPEGTVPLYSGFSFLFVQGNQRAHGQDLGTLGSCLQRFTTMPFLFCNVNDVCNFASRNDYSYWLSTPALMPMNMAPITGRALEPYISRCTVCEGPAIAIAVHSQTTDIPPCPHGWISLWKGFSFIMFTSAGSEGTGQALASPGSCLEEFRASPFLECHGRGTCNYYSNSYSFWLASLNPERMFRKPIPSTVKAGELEKIISRCQVCMKKRH
**Q.** How did the “tumor volume on day 10” value ([1]; 6 mg/kg i.p. daily, start 600-700 mm^3, control 1096±179.7) turn out when B3 was run?
**A.** 619±120.7 mm^3

**Q.** And the annexin fluorescence ([2]; 2 μg/ml, 18 hours)?
**A.** mild shift

**Q.** What about the annexin fluorescence ([2]; 20 μg/ml, 18 hours) of the same molecule?
**A.** distinct shift of annexin fluorescence peak

**Q.** What about the “Apo (Annexin V-FITC assay)” value [2] of the same molecule?
**A.** 10 µg

**Q.** And the annexin fluorescence ([2]; concentrations below 0.2 μg/ml)?
**A.** did not demonstrate any annexin V positivity

B4: Tumstatin-44-131: residues 44 to 131 of full-length Tumstatin (SEQ ID NO:33) (protein)
chain: FSFLFVQGNQRAHGQDLGTLGSCLQRFTTMPFLFCNVNDVCNFASRNDYSYWLSTPALMPMNMAPITGRALEPYISRCTVCEGPAIAI
modifications: Tumstatin-45-132 (amino acids 45-132 of SEQ ID NO10)
**Q.** What does the source list for B4?
**A.** annexin fluorescence ([2]; 5 μg/ml Tumstatin-44-131, 18 hours): distinct shift of the fluorescence intensity peak; Apo (Annexin V-FITC assay) [2]: active

B5: Can-1: N-terminal 114 amino acids of full-length Canstatin (protein, listed as Homo sapiens)
chain: VSIGYLLVKHSQTDQEPMCPVGMNKLWSGYSLLYFEGQEKAHNQDLGLAGSCLARFSTMPFLYCNPGDVCYYASRNDKSYWLSTTAPLPMMPVAEDEIKPYISRCSVCEAPAIA
**Q.** With B5 as the molecule, how does the induction of apoptosis ([2]; concentrations above 1 μg/ml) read?
**A.** induced apoptosis

**Q.** And the induction of apoptosis ([2]; concentrations of less than 1 μg/ml)?
**A.** most potent in inducing apoptosis

B6: endostatin: tumor associated angiogenesis inhibitor used as comparator (protein, UniProt P39060 1572-1754, looked up)
Endostatin: HSHRDFQPVLHLVALNSPLSGGMRGIRGADFQCFQQARAVGLAGTFRAFLSSRLQDLYSIVRRADRAAVPIVNLKDELLFPSWEALFSGSEGPLKPGARIFSFDGKDVLRHPTWPQKSVWHGSDPNGRRLTESYCETWRTEAPSATGQASSLLGGRLLGQSAASCHHAYIVLCIENSFMTASK
modifications: Endostatin
**Q.** Which “IC50, induction of endothelial cell apoptosis” value [2] does the source give for B6 here?
**A.** no activity
